Results reported in article PMC4456660.

Columns and labels:
[1] = biological target: Ube2S, biotinylated on an N-terminal Avi tag (human) (UniProt Q16763); test: SPR
[2] = biological target: UbcH10~Ub conjugate (UbcH10(C114K)-Avi conjugated with His6-tagged ubiquitin), biotinylated (human) (UniProt O00762); test: SPR
Sequence of UbcH10~Ub conjugate (UbcH10(C114K)-Avi conjugated with His6-tagged ubiquitin), biotinylated (human) (O00762 whole entry C114K): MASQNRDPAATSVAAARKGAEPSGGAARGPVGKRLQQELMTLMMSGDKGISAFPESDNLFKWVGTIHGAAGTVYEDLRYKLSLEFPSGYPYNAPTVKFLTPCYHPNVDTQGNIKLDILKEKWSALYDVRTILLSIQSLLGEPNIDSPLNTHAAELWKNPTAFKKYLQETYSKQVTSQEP

Sequence of Ube2S, biotinylated on an N-terminal Avi tag (human) (Q16763 whole entry): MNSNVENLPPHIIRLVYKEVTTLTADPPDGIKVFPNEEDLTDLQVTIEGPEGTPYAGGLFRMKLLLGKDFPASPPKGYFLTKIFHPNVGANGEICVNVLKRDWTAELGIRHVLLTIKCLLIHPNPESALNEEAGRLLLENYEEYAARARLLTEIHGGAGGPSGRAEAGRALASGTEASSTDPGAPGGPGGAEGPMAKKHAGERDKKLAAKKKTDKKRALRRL

Kd [1] [nM] | fold higher affinity than apo APC/C [2] [fold] | Substance
300 | – | apo APC/C (from UniProt Q9H1A4;Q9UJX6;P30260;Q9UJX5;Q9UJX4;Q13042;Q9UJX3;Q9UJX2;Q9UM13;Q9NYG5;Q8NHZ8;Q9BS18;P60006;Q96DE5) (complex)
200 | 7 | APC/C^Cdh1.Hsl1 ternary complex (from UniProt Q9H1A4;Q9UJX6;P30260;Q9UJX5;Q9UJX4;Q13042;Q9UJX3;Q9UJX2;Q9UM13;Q9NYG5;Q8NHZ8;Q9BS18;P60006;Q96DE5;Q9UM11;P34244)
